According to patent publication US20240343810A1 (published 2024):

T1: human ICOS expressed on cells (human, UniProt Q9Y6W8 21-199)
T1 sequence: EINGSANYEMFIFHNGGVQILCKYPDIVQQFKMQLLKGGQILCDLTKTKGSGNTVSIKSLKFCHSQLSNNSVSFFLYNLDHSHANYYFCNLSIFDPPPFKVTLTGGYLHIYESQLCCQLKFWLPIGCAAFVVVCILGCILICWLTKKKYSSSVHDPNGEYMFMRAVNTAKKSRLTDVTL

T2: mouse ICOS-mFc (Chimerigen) (mouse, UniProt Q9WVS0 21-141, limits assumed)
T2 construct: Bought; also called recombinant mouse ICOS protein; mICOS; not shown: mouse Fc of the bought fusion
T2 sequence: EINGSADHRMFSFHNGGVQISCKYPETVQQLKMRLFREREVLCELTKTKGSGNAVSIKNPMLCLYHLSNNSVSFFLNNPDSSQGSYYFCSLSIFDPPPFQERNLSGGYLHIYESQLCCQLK

T3: human ICOS-mFc (Chimerigen) (human, UniProt Q9Y6W8 21-140)
T3 construct: Bought; also called recombinant human ICOS protein; hICOS; not shown: mouse Fc of the bought fusion
T3 sequence: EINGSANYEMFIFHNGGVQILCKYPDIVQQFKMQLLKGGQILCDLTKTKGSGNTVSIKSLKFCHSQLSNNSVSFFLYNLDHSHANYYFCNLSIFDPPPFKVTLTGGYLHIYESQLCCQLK

B1: STIM003 (antibody, human IgG1, kappa)
heavy: not shown
light: EIVLTQSPGTLSLSPGERATLSCRASQSVSRSYLAWYQQKRGQAPRLLIYGASSRATGIPDRFSGDGSGTDFTLSISRLEPEDFAVYYCHQYDMSPFTFGPGTKVDIKRTVAAPSVFIFPPSDEQLKSGTASVVCLLNNFYPREAKVQWKVDNALQSGNSQESVTEQDSKDSTYSLSSTLTLSKADYEKHKVYACEVTHQGLSSPVTKSFNRGEC
notes: Anti-ICOS monospecific antibody, tested as human IgG1; also called STIM003 monoclonal IgG1 antibody
B2: STIM001 (antibody, human IgG1, kappa)
heavy: not shown
light: DIVMTQSPLSLPVTPGEPASISCRSSQSLLHSNEYNYLDWYLQKPGQSPQLLIFLGSNRASGVPDRFSGSGSGTDFTLKITRVEAEDVGIYYCMQSLQTPLTFGGGTKVEIKRTVAAPSVFIFPPSDEQLKSGTASVVCLLNNFYPREAKVQWKVDNALQSGNSQESVTEQDSKDSTYSLSSTLTLSKADYEKHKVYACEVTHQGLSSPVTKSFNRGEC
notes: Anti-ICOS monospecific antibody, tested as human IgG1; also called STIM001 monoclonal IgG1 antibody

Assays:
[1] = target: T1, human ICOS expressed on cells; test: cell-based or functional assay
[2] = target: T4, human PD-L1 expressed on cells (human, UniProt Q9NZQ7 19-290); test: Flow cytometry on CHO human PD-L1 cells
T4 construct: also called CHO-S cells transfected with the cDNA coding for human PD-L1; CHO human PD-L1
T4 sequence (Q9NZQ7 19-290 limits assumed): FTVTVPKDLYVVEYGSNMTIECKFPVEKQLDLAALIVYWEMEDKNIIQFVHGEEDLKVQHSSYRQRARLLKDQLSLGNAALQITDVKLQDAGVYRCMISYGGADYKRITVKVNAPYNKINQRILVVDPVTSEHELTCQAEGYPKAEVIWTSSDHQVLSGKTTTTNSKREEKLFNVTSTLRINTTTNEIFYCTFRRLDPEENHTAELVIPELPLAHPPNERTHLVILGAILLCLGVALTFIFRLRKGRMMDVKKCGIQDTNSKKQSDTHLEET

[3] = target: T2, mouse ICOS-mFc (Chimerigen); test: DELFIA ELISA on coated mouse ICOS-mFc, N=1
Procedure: (§1) Recombinant ICOS proteins, human ICOS-mFc or mouse ICOS-mFc (Chimerigen) were diluted in 1×PBS and added to Black Hi-bind plates (Griener) at 1 μg/ml, 50 μl/well. Recombinant PD-L1 proteins, human PD-L1-Flag-His or mouse-His were diluted in 1×PBS and added to Black Hi-bind plates (Griener) at 4 μg/ml, 50 μl/well. The plates were left overnight at 4° C. The next day plates were washed 3× with 300 μl/well of 1×PBS+0.1% Tween and blocked with 200 ul/well of 1×PBS+1% BSA blocking buffer for 1 hr at RT on a plate shaker. Plates were washed 3× with 300 μl/well of 1×PBS+0.1% Tween.
(§2) However, human-PD-L1 mAb² antibodies were diluted in 1×PBS+0.1% BSA buffer and diluted 1 in 2 from a starting working concentration of 0.066 μM over an 11 point titration. Titrated antibodies were added to the plates, 50 μl/well and left to incubate for 1 hr at R.T on a plate shaker. Plates were washed 3× with 300 μl/well of 1×PBS+0.1% Tween.
(§3) DELFIA® Eu-labelled Anti-human IgG (Perkin-Elmer) was diluted 1:500 in DELFIA Assay buffer (Perkin-Elmer) and added to the assay plate (50 μl/well), left to incubate for 1 hr at RT on a plate shaker. […] After incubation, assay was read on Envision plate reader (Perkin Elmer), Time-resolved fluorescence (TRF) was measured at 615 nm.

[4] = target: T2, mouse ICOS-mFc (Chimerigen); test: DELFIA ELISA on coated mouse ICOS-mFc, N=2
Procedure: as §1, §2, §3

[5] = target: T3, human ICOS-mFc (Chimerigen); test: HTRF, human ICOS-mFc, competitor human B7-H2-Alexa 647, n2
Procedure: (§4) 5 μl of human ICOS-mFc (Chimerigen) at 20 nM (5 nM final) or 5 ul of mouse ICOS-mFc (Chimerigen) at 4 nM (1 nM final) were added to relevant assay wells. Plate was incubated for 1 hour (hr) at room temperature (RT).
(§5) After incubation, assay was read on Envision plate reader (Perkin Elmer) using a standard HTRF protocol. 620 nm and 665 nm channel values were exported to Microsoft Excel and % Delta-F and % Neutralisation calculations performed. Titration curves and IC50 values [M] were plotted using Graphpad (Prism). IC50 values were calculated by first transforming the data using equation X=Log(X). The transformed data was then fitted using nonlinear regression, using fitting algorithm, log (inhibitor) vs. response—variable slope (four parameters).

[6] = target: T2, mouse ICOS-mFc (Chimerigen); test: HTRF, mouse ICOS-mFc, competitor mouse B7-H2-Alexa 647, n3
Procedure: as §4, §5

[7] = target: T1, human ICOS expressed on cells; test: Flow cytometry on CHO-S human ICOS cells, anti-human IgG AF647, N=3
Procedure: (§6) CHO—S cells transfected with either human ICOS or mouse ICOS were resuspended in FACS buffer (PBS+1% w/v BSA+0.1% w/v sodium azide) and transferred to a 96-well V-bottom plate (Greiner) at a density of 1×10⁵ cells per well. mAb and mAb² were titrated in FACS buffer, 1 in 3 dilution across 11 points from a starting working concentration of 400 nM. Plates were centrifuged at 300×g for 3 minutes, supernatant discarded and 50 μL mAb or mAb² solution were added to cells and incubated at 4° C. for 1 hour. Cells were washed with 150 μL of PBS and centrifuged at 300×g for 3 minutes, supernatant was discarded and cell pellet resuspended in 150 μL PBS added. This wash step was repeated twice. Bound mAb or mAb² was detected by addition of 50 μL of anti-human 647 (Jackson ImmunoResearch) diluted to 3 ug/ml in FACS buffer. Cells were incubated for 1 hour at 4° C. in the dark. Cells were washed with 150 μL of PBS and centrifuged at 300 g for 3 minutes, supernatant was discarded and cell pellet resuspended in 150 μL PBS added. This wash step was repeated twice. Cells were fixed with 25 μL 4% v/v paraformaldehyde, incubated for 20 minutes at 4° C., cells were pelleted by centrifugation at 300×g and the supernatant discarded. […] AlexaFluor 647 signal intensity (geometric mean) was measured by flow cytometry using a Beckman Coulter CytoFLEX instrument.

[8] = target: T1, human ICOS expressed on cells; test: Flow cytometry on CHO-S human ICOS cells, anti-human IgG AF647, mean
Procedure: as §6

Row | Binder | EC50 of ADCC (specific dye release), ICOS-transfected CCRF-CEM + NK cells, Donor 326 [1] [pM] | EC50 of ADCC (specific dye release), ICOS-transfected CCRF-CEM + NK cells, Donor 334 [1] [pM] | EC50 of ADCC (specific dye release), ICOS-transfected CCRF-CEM + NK cells, Donor 341 [1] [pM] | EC50 of ADCC (specific dye release), ICOS-transfected CCRF-CEM + NK cells, column 'Median' [1] [pM] | binding result [2] | EC50 [3] [nM] | EC50 [4] [nM] | IC50 [5] [nM] | IC50 [6] [nM] | EC50 [7] [nM] | EC50 [8] [nM]
1 | B1 | 21.2 | 3.7 | 6.7 | 10.5 | no binding (tested: 198 nM) | 0.416 | 0.386 | 0.45 | 0.11 | 4.49 | 5.53
2 | B2 | 42.6 | 20.5 | 7.6 | 23.6 | no binding (tested: 198 nM) | 11.4 | 18.7 | 1.12 | 9.25 | 19.7 | 21.2
